Data as given in US20240409645A1.

T1: mouse IL-2Rβ (mouse) (UniProt P16297)
T1 sequence (looked up): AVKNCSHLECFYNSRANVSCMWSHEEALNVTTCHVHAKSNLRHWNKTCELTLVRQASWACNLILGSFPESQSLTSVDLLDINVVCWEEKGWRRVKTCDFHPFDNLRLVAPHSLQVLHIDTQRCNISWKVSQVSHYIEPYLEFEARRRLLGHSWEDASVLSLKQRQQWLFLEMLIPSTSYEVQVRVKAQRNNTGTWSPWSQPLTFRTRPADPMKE


What follows are binders tested against T1, mouse IL-2Rβ (mouse) (assay: P.E. ELISA, coated protein).

| Binder | P.E. binding ELISA OD |
| --- | --- |
| FJ1427_P035MP02A08 (VHH) VHH: EVQLVESGGGLVQAGGSLRLSCTVSGDVFVRYTMAWFRQAPGKEREFVATVTDSGRTTEYVDSVKGRFTVSRDNAKNTVYLQMNNLKPEDTAVYYCAANTDYFRIRSLDANTWGQGTQVTVSS | 0.069 OD450 nm |
| FJ1427 P035MP02D08 (VHH) VHH: EVQLVESGGGLVQAGGSLRLSCVVSGDVFVRYTMAWFRQAPGKEREFVTSITDSGRTTEYVDSVKGRFTVSRDNAKNTVYLQMNNLKPEDTAVYYCAANTDYFRIRSLDANTWGQGTQVTVSS | 0.048 OD450 nm |
| FJ1427 P035MP02C05 (VHH) VHH: QVQLVESGGGLVQTGGSLRLSCAVSGSRFISDVMGWYRQVPGKQRELVADMADGGSAKYADSVKGRFSILRDSVKNTVYLQMSSLKPEDTGIYYCKAGLWIAGRHSDYWGQGTQVTVSS | 0.047 OD450 nm |
| FJ1427 P035MP02C08 (VHH) VHH: EVQLVESGGGLVQAGGSLRLSCAASGSTFSRQPMYWFRQAPGKEREFVAAITWSGRGTLYADSVEGRFTISRDNAKNTVYLQMNSLRPDDTAAYYCAAGPYGDAAYRHGRIDSWGQGTQVTVSS | 0.047 OD450 nm |
| FJ1427 P035MP02H05 (VHH) VHH: EVQLVESGGGSVQTGGSLRLSCVVSGSHFISDVMGWYRQVPGKQRELVADMADGGSAKYGDSVKGRFTILRDSVKNTVTLQMSSLNPEDTGVYYCKAGLWITGRHSDYWGQGTQVTVTS | 0.049 OD450 nm |
| FJ1427 P035MP02B07 (VHH) VHH: EVQLVESGGGLVEAGGSLRLSCAASGRAFNNFPMGWFRQAPGKEREFVAAITWISGSTLYADSVKGRFTISRDKSKNTVYLQMSGLKPEDTALYYCAAALKTITRGQHDYTYWGQGTQVTVSS | 0.046 OD450 nm |
| FJ1427 P035MP02H04 (VHH) VHH: QVQLVESGGGLVQAGDSLRLSCATSGLTFSSYALGWFRQAPGKKREFVAATTRGGGRTMYAVSTEGRFTCSRDNDKNTVYLLMNSLKPKDTAVYYCAAMTSYYSGTYYPDSSDFDIWGQGTQVTVSS | 0.05 OD450 nm |
| FJ1427_P035MP02B04 (VHH) VHH: EVQLVESGGGLVQAGGSLGLSCAASGGTFSSYAMGWFRQAPGKEREFVAATTRGGGRTMYAVSTEGRFTCSRDNAKNTVYLQMNSLKPKDTAIYYCAAMTSYYSGTYYPDSSDFDIWGQGTQVTVSS | 0.047 OD450 nm |
| FJ1427_P035MP02A06 (VHH) VHH: QVQLQESGGGLVQAGGSLRLSCAASGGTFSSYAMGWFRQAPGKEREFVAATTRGGGRTMYAVSTEGRFTCSRDNDKNTVYLLMNSLKPKDTAVYYCAAMTSYYSGTYYPDSSDFDIWGQGTQVTVSS | 0.048 OD450 nm |
| FJ1427 P035MP02D05 (VHH) VHH: QVQLVESGGGLVQPGESLGLSCAASGFTFSNYAMSWVRQAPGKGLEWVSSITGAGRGTDYADSVKGRFTISRDNAKNTLYLQMNSLKPEDTAVYYCAKYSSGTYYPPTPVRGTDYRGQGTQVTVSS | 0.049 OD450 nm |
| FJ1427 P035MP02C06 (VHH) VHH: QLQLVESGGGLVQPGGSLELSCAASGFTFSNYAMSWVRQAPGKGLEWVSSITGFGRGTDYADSVKGRFTISRDNAKNTLYLQMNSLKPEDTAVYYCARYSSSTYYPPTPARGRDYRGQGTQVTVSS | 0.047 OD450 nm |
| FJ1427 P035MP02A04 (VHH) VHH: EVQLVESGGGLVQTGGSLRLSCTASGSQFINDVMGWYRQVPGKQRELVADMDDTGSTKYADSVNGRFTILRDSVKNTAYLQMSNLKPEDTGVYYCKAGLWIKGRHSDYWGQGTQVTVSS | 0.048 OD450 nm |
| FJ1427 P035MP02G05 (VHH) VHH: EVQLVESGGGLVQTGGSLRLSCAASGSQFINDVTGWYRQVPGKQRELVADMDDTGSTKYADSVKGRFTILRDSVKNTAYLQMSNLKPEDTGVYYCKAGLWIKGRHSDYWGQGTQVTVSS | 0.048 OD450 nm |
| FJ1427_P035MP02A05 (VHH) VHH: EVQLVESGGGLVQTGGSLRLSCAASGSQFINDVMGWYRQVPGKQRELVADMDDTGSTKYADSVKGRFTILRDSVKNTAYLQMSNLKPEDTGVYYCKAGLWIKGRHSDYWGQGTQVTVSS | 0.047 OD450 nm |
| FJ1427 P035MP02F04 (VHH) VHH: EVQLVESGGGLVQTGGSLRLSCAASGSQFINDVMGWYRQVPGKQRELVADMDDTGSTKYADSVKGRFTILRDSVKNTAYLQMSNLKPEDTGVYYCKAGLWIKGRHFDYWGQGTQVTVSS | 0.048 OD450 nm |

The remaining lines, values ahead:

| P.E. binding ELISA OD | Binder |
| --- | --- |
| 0.058 OD450 nm | FJ1427_P035MP02E08 (VHH) VHH: EVQLVESGGGLVQAGGSLRLSCVVSGDVFVRYTMAWFRQAPGKEREFVAVVTDSGRTTEYVDSVKGRFTVSRDNAKNTVYLQMNNLKPEDTAVYYCAANTDYFQIRSVDNNAWGQGTQVTVSS |
| 0.048 OD450 nm | FJ1427_P035MP02D04 (VHH) VHH: QVQLVESGGGLVQTGGSLRLSCAVSGSRFISDVMGWYRQVPGKQRELVADMADGGSAKYADSVKGRFSILRDSVKNTVYLQMSSLKPEDTGIYYCKAGLWIAGRHSDYWGQGTQVTVSS |
| 0.048 OD450 nm | FJ1427_P035MP02F05 (VHH) VHH: EVQLVESGGGLVQTGGSLRLSCAVSGSRFISDVMGWYRQVPGKQRELVADMADGGSAKYADSVKGRFSILRDSVKNTVYLQMSSLKPEDTGIYYCKAGLWIAGRHSDYWGQGTQVTVSS |
| 0.049 OD450 nm | FJ1427_P035MP02E03 (VHH) VHH: EVQLVESGGGSVQTGGSLRLSCVVSGSHFISDVMGWYRQVPGKQRELVADMADGGSVKYGDSVKGRFTILRDSVKNTVTLQMSSLNPEDTGVYYCKAGLWITGRHFDYWGQGTQVTVTS |
| 0.046 OD450 nm | FJ1427_P035MP02C07 (VHH) VHH: QVQLVESGGGLVQAGGSLRLSCAASGRTFSINTMGWFRQAPGKEREFVAAISRSGDSTVYVDSVKGRFTISRDNAKNTVYLQMNTLKPEDTAVYYCATTVAVGWTTRWSTIDFDSWGQGTQVTVSS |
| 0.046 OD450 nm | FJ1427_P035MP02D07 (VHH) VHH: EVQLVESGGGLVQAGGSLRLSCAASGRSLSTTEMGWFRQAPGKEREFVAAITWSGRGTMYAESVEGRFAVSRENAKNTVYLQMNSLKPEDTAIYYCAAARRGRAAVRSEGGYDFWGQGTQVTVSS |
| 0.047 OD450 nm | FJ1427_P035MP02F06 (VHH) VHH: EVQLVESGGGLVQTGGSLRLSCAASGSRFISDFMGWYRQVPGKQRELVADMADGGSARYGDSVKGRFTILRESGNATAYLQMSSLKPEDTGVYYCKAGLWIAGRHFDYWGQGTQVTVSS |
| 0.048 OD450 nm | FJ1427_P035MP02F08 (VHH) VHH: QVQLVESGGGLVQAGGSLRLSCAASGSIFSLNTMGWFRQAPGKEREFVAAISRSGGSATYGDSVKGRFTISTNNAKTTVYLQMNSLKPDDTAVYSCAASAAVGWTTRWSTIDFDSWGQGTQVTVSS |
| 0.048 OD450 nm | FJ1427_P035MP02F03 (VHH) VHH: EVQLVESGGGLVQAGGSLRLSCAASGGTFSSYAMGWFRQAPGKEREFVAATTRGGGRTMYAVSTEGRFTCSRDNAKNTVYLLMNSLKPEDTAVYYCAAMTSYYSGTYYPDSSDFDIWGQGTQVTVSS |
| 0.048 OD450 nm | FJ1427_P035MP02E04 (VHH) VHH: EVQLVESGGGLVQAGGSLRLSCAASGGTFSSYAMGWFRQAPGKEREFVAATTRGGGRTMYAVSTEGRFTCSRDNAKNTVYLQMNSLKPKDTAIYYCAAMTSYYSGTYYPDSSDFDIWGQGTQVTVSS |
| 0.049 OD450 nm | FJ1427_P035MP02G03 (VHH) VHH: QVQLVESGGGLVQPGGSLGLSCAASGFTFSNYAMSWVRQAPGKGLEWVASITGFGRGTDYADSVKGRFTVSRDNAKNTLYLQMNSLKPEDTAVYYCAKYSSSTYYPPTPARGRDYRGQGTQVTVSS |
| 0.047 OD450 nm | FJ1427_P035MP02C04 (VHH) VHH: QVQLVESGGGLVQPGGSLELSCAASGFTFSNYAMSWVRQAPGKGLEWVSSITGFGRGTDYADSVKGRFTISRDNDKNTLYLQMNSLKPEDTAVYYCARYSSSTYYPPTPARGRDYRGQGTQVTVSS |
| 0.047 OD450 nm | FJ1427_P035MP02B06 (VHH) VHH: QVQLVESGGGLVQPGESLGLSCAASGFTFSNYAMSWVRQAPGKGLEWVSSITGAGRGTDYADSVKGRFTISRDNAKNTLYLQMNSLKPEDTAVYYCAKYSSGTYYPPTPVRGTDYRGQGTQVTVSS |
| 0.048 OD450 nm | FJ1427_P035MP02E05 (VHH) VHH: EVQLVESGGGLVQIGGSLRLSCAASGRTFSSITMAYFRQVPGKEHEWVAGINFSGTRTFYADSVKGRFLISRDDAKSTMYLQMNSLKPEDTAVYYCAASPRGFYGPGNALYDYWGQGTQVTVSS |
| 0.047 OD450 nm | FJ1427_P035MP02D06 (VHH) VHH: EVQLVESGGGLVQTGGSLRLSCAASGSQFINDVMGWYRQVPGKQRELVADMDDTGSTKYADSVKGRFTILRDSVKNTAYLQMSNLKPEDTGVYYCKAGLWIKGRHSDYWGQGTQVTVSS |
| 0.048 OD450 nm | FJ1427_P035MP02G04 (VHH) VHH: QVQLVESGGGLVQAGGSLRLSCAASGSQFINDVMGWYRQVPGKQRELVADMDDTGSTKYADSVKGRFTILRDSVKNTAYLQMSNLKPEDTGVYYCKAGLWIKGRHFDYWGQGTQVTVSS |
| 0.048 OD450 nm | FJ1427_P035MP02B05 (VHH) VHH: EVQLVESGGGLVQTGGSLRLSCAASGSQFINDVMGWYRQVPGKQRELVADMDDTGSTKYADSVKGRFTILRDSVKNTAYLQMSNLKPEDTGVYYCKAGLWIKGRHFDYWGQGTQVTVSS |
